# Measurements: US20170037117A1, “COMPOSITIONS AND METHODS FOR TREATING METABOLIC DISORDERS” (Salk Institute for Biological Studies, priority 2014, published 2017)
# T1: human α-CGRP (Homo sapiens, UniProt P06881)
# T1 construct: 1-37 (WT); purchased GenScript Corporation or Global Peptide Services
# T1 sequence (P06881 83-119 limits assumed): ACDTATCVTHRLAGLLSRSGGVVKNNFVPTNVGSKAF
# B1: M25: G1 variant: L1 R28N; HC-FW3 L99T A100V (antibody, V domains shown)
# VH: EVQLVESGGGLVQPGGSLRLSCAASGFTFSNYWISWVRQAPGKGLEWVAEIRSESDASATHYAEAVKGRFTISRDNAKNSLYLQMNSLRAEDTAVYYCTVYFDYGLAIQNYWGQGTLVTVSS
# VL: EIVLTQSPATLSLSPGERATLSCKASKNVTTYVSWYQQKPGQAPRLLIYGASNRYLGIPARFSGSGSGTDFTLTISSLEPEDFAVYYCSQSYNYPYTFGQGTKLEIK
# Molecular target: T1, human α-CGRP
# Experiment: Biacore affinity of G1 Fab and variants to human α-CGRP
# Format: binding
# Details: 37° C.; Fab fragments; screening mode except underlined values (G1 high-resolution mode)
# Experimental: Biacore assay for affinity determination. […] All Biacore assays were conducted in HBS-EP running buffer (10 mM HEPES pH 7.4, 150 mM NaCl, 3 mM EDTA, 0.005% v/v polysorbate P20). CGRP surfaces were prepared by diluting the N-biotinylated CGRP to a concentration of less than 0.001 mg/mL into HBS-EP buffer and injecting it across the SA sensor chip using variable contact times. Low capacity surfaces, corresponding to capture levels <50 response units (RU) were used for high-resolution kinetic studies, whereas high capacity surfaces (about 800 RU of captured CGRP) were used for concentration studies, screening, and solution affinity determinations. […] Samples were typically injected for 1 minute at 100 μL/min and dissociation times of at least 10 minutes were allowed. After each binding cycle, surfaces were regenerated with 25 mM NaOH in 25% v/v ethanol, which was tolerated over hundreds of cycles. […]
# High-resolution analysis of binding interactions with extremely slow offrates. […] The association rate constant (kon) was determined by injecting a 2-fold titration series (in duplicate) spanning 550 nM-1 nM for 30 sec at 100 uL/min and allowing only a 30 sec dissociation phase. The dissociation rate constant (koff) was determined by injecting three concentrations (high, medium, and low) of the same titration series in duplicate for 30 sec and allowing a 2-hour dissociation phase. […]
molecule,measurement,value
B1,α-human koff,0.00014 s⁻¹
